Experimental data as given in PMC7611853 (Nature cell biology, 2021).

Assays:
[1] = target: the molecule itself; test: negative-stain TEM, circular dichroism and amyloid-dye
centrifugation = target: the molecule itself; test: centrifugation

Protein	binding result [1]	binding result (centrifugation)
Cdc19^WT (wild-type pyruvate kinase Cdc19, strep-tagged, recombinant) (enzyme, S. cerevisiae, UniProt P00549 1-500, looked up) MSRLERLTSLNVVAGSDLRRTSIIGTIGPKTNNPETLVALRKAGLNIVRMNFSHGSYEYHKSVIDNARKSEELYPGRPLAIALDTKGPEIRTGTTTNDVDYPIPPNHEMIFTTDDKYAKACDDKIMYVDYKNITKVISAGRIIYVDDGVLSFQVLEVVDDKTLKVKALNAGKICSHKGVNLPGTDVDLPALSEKDKEDLRFGVKNGVHMVFASFIRTANDVLTIREVLGEQGKDVKIIVKIENQQGVNNFDEILKVTDGVMVARGDLGIEIPAPEVLAVQKKLIAKSNLAGKPVICATQMLESMTYNPRPTRAEVSDVGNAILDGADCVMLSGETAKGNYPINAVTTMAETAVIAEQAIAYLPNYDDMRNCTPKPTSTTETVAASAVAAVFEQKAKAIIVLSTSGTTPRLVSKYRPNCPIILVTRCPRAARFSHLYRGVFPFVFEKEPVSDWTDDVEARINFGIEKAKEFGILKKGDTYVSIQGFKAGAGHSNTLQVSTV	binds	
Cdc19^ΔFBP (Cdc19 point-mutant T403E unable to bind FBP, strep-tagged, recombinant) (enzyme, S. cerevisiae, UniProt P00549 1-500, looked up) MSRLERLTSLNVVAGSDLRRTSIIGTIGPKTNNPETLVALRKAGLNIVRMNFSHGSYEYHKSVIDNARKSEELYPGRPLAIALDTKGPEIRTGTTTNDVDYPIPPNHEMIFTTDDKYAKACDDKIMYVDYKNITKVISAGRIIYVDDGVLSFQVLEVVDDKTLKVKALNAGKICSHKGVNLPGTDVDLPALSEKDKEDLRFGVKNGVHMVFASFIRTANDVLTIREVLGEQGKDVKIIVKIENQQGVNNFDEILKVTDGVMVARGDLGIEIPAPEVLAVQKKLIAKSNLAGKPVICATQMLESMTYNPRPTRAEVSDVGNAILDGADCVMLSGETAKGNYPINAVTTMAETAVIAEQAIAYLPNYDDMRNCTPKPTSTTETVAASAVAAVFEQKAKAIIVLSESGTTPRLVSKYRPNCPIILVTRCPRAARFSHLYRGVFPFVFEKEPVSDWTDDVEARINFGIEKAKEFGILKKGDTYVSIQGFKAGAGHSNTLQVSTV		binds
